According to the Human Domainome abundance scans (Beltran et al. 2025):
± gives the uncertainty stated by the source.

B1: E3 ubiquitin-protein ligase NEDD4, residues 836 to 881; numbered along this chain, P46934 (parent)
chain: EIEQGFLPKGWEVRHAPNGRPFFIDHNTKTTTWEDPRLKIPAHLRG
B2: POU domain, class 2, transcription factor 1, residues 285 to 354; numbered along this chain, P14859 (parent)
chain: LEELEQFAKTFKQRRIKLGFTQGDVGLAMGKLYGNDFSQTTISRFEALNLSFKNMCKLKPLLEKWLNDAE

Variants of: B1
Assay: abundance fitness (aPCA) (normalised: wild type 0, dead -1); higher = more abundant; growth selection in yeast, the domain comes from the species named
Conditions: Homo sapiens

Abundance fitness of substitutions, site by site:
L38: P -0.072 ± 0.043; T 0.033 ± 0.07; N -0.166 ± 0.084; M -0.066 ± 0.066; I -0.043 ± 0.062
H15: Q -0.257 ± 0.098; T -0.047 ± 0.042; K 0.081 ± 0.064; P -0.507 ± 0.083; L -0.013 ± 0.033; A -0.095 ± 0.079
W11: M -0.563 ± 0.058; S -0.424 ± 0.048; K -0.409 ± 0.063; H -0.761 ± 0.21; C -0.418 ± 0.094; Q -0.455 ± 0.068
F22: I -0.168 ± 0.07; E -0.393 ± 0.067; A -0.688 ± 0.08; G -0.712 ± 0.048
R45: Y -0.072 ± 0.041; L -0.182 ± 0.045; S -0.131 ± 0.054; Q -0.11 ± 0.091; E 0.153 ± 0.069; T -0.074 ± 0.041; H 0.104 ± 0.076; A -0.005 ± 0.061; I -0.454 ± 0.1
T28: W -0.971 ± 0.071; H -0.338 ± 0.073; M -0.487 ± 0.038; F -0.776 ± 0.14; S -0.201 ± 0.048; E -0.218 ± 0.069
R14: P -0.407 ± 0.13; F -0.272 ± 0.054; A -0.156 ± 0.048; S -0.297 ± 0.042; G -0.114 ± 0.044; D -0.289 ± 0.034
P8: E -0.594 ± 0.18; C -0.969 ± 0.3; D -0.626 ± 0.088; L -0.988 ± 0.23; M -0.692 ± 0.3; W -0.856 ± 0.15; I -0.623 ± 0.23
T31: G -0.398 ± 0.036; A -0.004 ± 0.044; D -0.576 ± 0.11; K -0.572 ± 0.12
H43: A -0.105 ± 0.054; P 0.094 ± 0.064; D -0.177 ± 0.087; K -0.04 ± 0.054; Q 0.007 ± 0.048; T 0.059 ± 0.059
I2: A -0.152 ± 0.05; C -0.217 ± 0.094; K -0.012 ± 0.082; R -0.141 ± 0.031; Y -0.326 ± 0.14
N18: P -0.255 ± 0.13; S -0.241 ± 0.051; H -0.718 ± 0.097; R -0.805 ± 0.11; Q -1.06 ± 0.34; T -0.29 ± 0.033; E -0.232 ± 0.064; C -0.256 ± 0.093; M -0.907 ± 0.065
I40: G 0.028 ± 0.036; V -0.007 ± 0.054; Y -0.27 ± 0.063; R -0.018 ± 0.058; S 0.009 ± 0.056; E -0.233 ± 0.1
W33: S -0.307 ± 0.041; Q -0.337 ± 0.045
I24: G -0.98 ± 0.12; F -0.522 ± 0.21; Y 0.137 ± 0.16; N -0.715 ± 0.1; C -0.402 ± 0.071; R -0.609 ± 0.067; W -0.356 ± 0.058
P17: A -0.075 ± 0.064; E 0.016 ± 0.053; T -0.298 ± 0.07; C -0.295 ± 0.055; Q -0.585 ± 0.17; N -0.308 ± 0.1; R -0.178 ± 0.053; Y -0.662 ± 0.13; W -0.419 ± 0.077
Q4: G -0.09 ± 0.045; Y -0.016 ± 0.083; L -0.062 ± 0.051; I -0.335 ± 0.084
L7: F -0.459 ± 0.098; K -0.601 ± 0.054; N -1.01 ± 0.37; C -0.882 ± 0.16; Q -0.38 ± 0.14
A42: T -0.22 ± 0.08; R -0.273 ± 0.074; P -0.075 ± 0.074; W -0.316 ± 0.13
G10: N -0.12 ± 0.062; L -0.95 ± 0.12; Y -0.781 ± 0.041; F -0.6 ± 0.14
D25: N -0.261 ± 0.091; I -0.792 ± 0.34; R -0.682 ± 0.067; W -0.86 ± 0.17; G -0.836 ± 0.045; C -0.447 ± 0.046
K9: G -0.252 ± 0.042; R -0.205 ± 0.056; L -0.257 ± 0.034; N -0.112 ± 0.038; C -0.268 ± 0.087; E -0.119 ± 0.037
G5: A -0.064 ± 0.054; R -0.123 ± 0.037; P -0.26 ± 0.055; M -0.175 ± 0.066; K 0.015 ± 0.042; L -0.217 ± 0.044
F23: N -0.79 ± 0.15; V -0.651 ± 0.057; D -0.679 ± 0.066; Y -0.27 ± 0.076; T -0.883 ± 0.14
T30: H 0.276 ± 0.087; L -0.297 ± 0.04; M -0.206 ± 0.073; Q -0.216 ± 0.058; A -0.368 ± 0.075; F -0.466 ± 0.033
E3: R -0.366 ± 0.044; I -0.15 ± 0.11; Q 0.098 ± 0.066; N 0.097 ± 0.083; Y -0.07 ± 0.092; M -0.073 ± 0.071
P41: R -0.117 ± 0.041; H 0.051 ± 0.088; V -0.141 ± 0.042; I 0.029 ± 0.082; W -0.49 ± 0.084; A -0.078 ± 0.033; G -0.423 ± 0.047
F6: T 0.202 ± 0.039; M -0.345 ± 0.061; V 0.038 ± 0.044; G 0.09 ± 0.04; P 0.001 ± 0.07
V13: R -0.149 ± 0.034; Y -0.799 ± 0.2; F -0.159 ± 0.084; T -0.529 ± 0.09
G19: P -0.695 ± 0.14; N -0.551 ± 0.12; D -0.943 ± 0.26; C -0.929 ± 0.2; W -0.833 ± 0.1; H -0.496 ± 0.27; K -0.826 ± 0.17
A16: C -0.11 ± 0.081; I -0.193 ± 0.23; T 0.127 ± 0.079; G -0.108 ± 0.05
E12: F -0.352 ± 0.11; N -0.949 ± 0.17; M -0.89 ± 0.14; W -0.692 ± 0.13
K29: N -0.089 ± 0.038; H -0.224 ± 0.092; S -0.231 ± 0.053; L -0.343 ± 0.037; A -0.237 ± 0.055
T32: K -0.775 ± 0.046; H -0.033 ± 0.087; L -0.85 ± 0.1; D -1.05 ± 0.28; I -0.471 ± 0.14; E -0.655 ± 0.048; G -0.619 ± 0.078; V -0.456 ± 0.085
H26: W -0.327 ± 0.062; A -0.69 ± 0.05; D -0.515 ± 0.062; N -0.449 ± 0.12; F -0.209 ± 0.098; Y -0.749 ± 0.16
E34: P -1.08 ± 0.24; R -0.307 ± 0.034; C -0.268 ± 0.071; Y -0.272 ± 0.077; G -0.51 ± 0.066
P36: A -0.629 ± 0.06; C -0.958 ± 0.15; K -0.846 ± 0.079
D35: A -0.216 ± 0.081; K -0.814 ± 0.078
N27: C -0.405 ± 0.062; S -0.302 ± 0.05; G -0.382 ± 0.033
E1: Y 0.202 ± 0.45; N 0.381 ± 0.29
P21: A -0.055 ± 0.04; T -0.451 ± 0.073; M -0.218 ± 0.057; W -0.402 ± 0.04; V -0.149 ± 0.057; F -0.601 ± 0.1; S -0.233 ± 0.046
R20: D -0.212 ± 0.083; W -0.946 ± 0.14; H -0.064 ± 0.071; S -0.087 ± 0.05
R37: Y -0.784 ± 0.076; E -0.752 ± 0.17; A -0.567 ± 0.056; F -0.672 ± 0.14
G46: A -0.249 ± 0.26; S -0.002 ± 0.094
K39: A -0.085 ± 0.046; M -0.101 ± 0.065; F -0.421 ± 0.066
L44: S -0.001 ± 0.056; T -0.027 ± 0.033; W -0.188 ± 0.051; Y -0.172 ± 0.039

Variants of: B2
Assay: as above
Conditions: Homo sapiens

Abundance fitness, by site and new letter:
L1: A -0.201 ± 0.22; C -0.065 ± 0.34; D -0.145 ± 0.15; E -0.124 ± 0.11; F 0.007 ± 0.044; I -0.003 ± 0.17; K 0.001 ± 0.11; M 0.073 ± 0.06; N -0.074 ± 0.096; R 0.142 ± 0.12; S -0.055 ± 0.28; V -0.026 ± 0.058; W -0.02 ± 0.051; Y 0.13 ± 0.15
E2: C -0.152 ± 0.051; D -0.013 ± 0.17; F -0.009 ± 0.036; G -0.303 ± 0.1; H -0.175 ± 0.057; I -0.029 ± 0.06; K 0.053 ± 0.037; M -0.012 ± 0.026; N 0.109 ± 0.072; P -0.178 ± 0.039; Q -0.043 ± 0.037; R -0.013 ± 0.03; S -0.057 ± 0.031; T -0.158 ± 0.032; V -0.067 ± 0.045; W -0.043 ± 0.029; Y -0.046 ± 0.057
E3: A -0.143 ± 0.05; C -0.202 ± 0.046; F -0.159 ± 0.039; G -0.201 ± 0.063; H -0.036 ± 0.044; I -0.117 ± 0.063; K -0.137 ± 0.035; M -0.089 ± 0.027; N -0.07 ± 0.078; P -0.569 ± 0.043; Q -0.078 ± 0.034; R -0.207 ± 0.036; S -0.105 ± 0.024; T -0.146 ± 0.031; V -0.118 ± 0.033; W -0.305 ± 0.042; Y -0.186 ± 0.047
L4: F -0.483 ± 0.16; M -0.022 ± 0.23; S -0.263 ± 0.21; V -0.145 ± 0.14
E5: A -0.022 ± 0.026; C -0.114 ± 0.037; D -0.072 ± 0.05; F -0.13 ± 0.046; G -0.019 ± 0.021; H -0.116 ± 0.077; I -0.1 ± 0.08; K -0.017 ± 0.04; L -0.022 ± 0.022; M -0.028 ± 0.037; N -0.059 ± 0.059; P -0.571 ± 0.075; Q -0.125 ± 0.053; R -0.034 ± 0.024; S -0.039 ± 0.031; T -0.004 ± 0.041; Y -0.071 ± 0.054
Q6: A 0.015 ± 0.049; D -0.086 ± 0.09; E 0.034 ± 0.055; F -0.059 ± 0.041; G -0.012 ± 0.051; H -0.001 ± 0.025; I -0.009 ± 0.051; K 0.034 ± 0.03; L -0.031 ± 0.019; M -0.038 ± 0.021; N 0.074 ± 0.071; P -0.245 ± 0.031; S -0.017 ± 0.026; T 0.025 ± 0.04; V -0.076 ± 0.031; W -0.058 ± 0.032; Y -0.03 ± 0.05
F7: A -0.355 ± 0.18; C -0.011 ± 0.13; G -0.07 ± 0.28; I -0.298 ± 0.17; L -0.297 ± 0.14; M -0.263 ± 0.26; R -0.437 ± 0.11; S -0.324 ± 0.088; V 0.191 ± 0.27; W 0.123 ± 0.29
